In patent US20040115763A1:

Target: secreted FLAG peptide-fused G6 polypeptide G6sec2 (produced with the pVL1393-F2G6sec2-derived recombinant virus) (human) (UniProt Q9BYG0)
Assay: Western blotting with anti-FLAG antibody

- strength of band (band of G6sec1 eluate defined as 1) (relative to G6sec1 = 1): 1.05
Substance: anti-FLAG peptide antibody (of YEAST AMINO-TERMINAL FLAG EXPRESSION KIT, manufactured by SIGMA)
